# Positions count from the first letter of the chain named.
# B1: AMX200.A11: DNA SELEX 1 aptamer clone (nucleic acid)
# DNA: CTACCTACGATCTGACTAGCTGAGTAGTTAGTAACTTTTTATTATGGTTTGGTGGGTCTGGCTTACTCTCATGTAGTTCC
# modifications: DNA, backbone not given here
# notes: DNA SELEX 1 aptamer clone
# B2: AMX200.H8: DNA SELEX 1 aptamer clone (nucleic acid)
# DNA: B1 DNA with T29C, C35T, T57C
# modifications: DNA, backbone not given here
# notes: DNA SELEX 1 aptamer clone
# B3: AMX200.F9: DNA SELEX 1 aptamer clone (nucleic acid)
# DNA: CTACCTACGATCTGACTAGCGGAATGAGGATGCTGATGGATTGGTCAGGTCTGCTGGCTGCTTACTCTCATGTAGTTCC
# modifications: DNA, backbone not given here
# notes: DNA SELEX 1 aptamer clone
# B4: AMX202.B8: DNA SELEX 1 aptamer clone (nucleic acid)
# DNA: B3 DNA with G29T, G44C
# modifications: DNA, backbone not given here
# notes: DNA SELEX 1 aptamer clone
# B5: AMX202.H10: DNA SELEX 1 aptamer clone (nucleic acid)
# chain: B3 DNA with G29A, T31G, A36G, G44C
# modifications: DNA, backbone and methylation of C not given here
# notes: DNA SELEX 1 aptamer clone
# B6: AMX202.A3: DNA SELEX 1 aptamer clone (nucleic acid)
# DNA: B3 DNA with G29A, A30G, T31C, G44C
# modifications: DNA, backbone not given here
# notes: DNA SELEX 1 aptamer clone
# B7: AMX202.D6: DNA SELEX 1 aptamer clone (nucleic acid)
# DNA: B3 DNA with G29A, T31G, G44C
# modifications: DNA, backbone not given here
# notes: DNA SELEX 1 aptamer clone
# B8: AMX200.E8: DNA SELEX 1 aptamer clone (nucleic acid)
# DNA: B3 DNA with A36G, G44C, C54T
# modifications: DNA, backbone not given here
# notes: DNA SELEX 1 aptamer clone
# B9: AMX199.F8: DNA SELEX 1 aptamer clone (nucleic acid)
# DNA: CTACCTACGATCTGACTAGCAAGGGGATTGGCTCCGGGTCTGGCGTGCTTGGCACCTCTGGCTTACTCTCATGTAGTTCC
# modifications: DNA, backbone not given here
# notes: DNA SELEX 1 aptamer clone
# B10: AMX199.D8: DNA SELEX 1 aptamer clone (nucleic acid)
# DNA: B9 DNA with C55T, C58T, T59C
# modifications: DNA, backbone not given here
# notes: DNA SELEX 1 aptamer clone
# B11: AMX202.A8: DNA SELEX 1 aptamer clone (nucleic acid)
# DNA: B9 DNA with T50C, C56T, T59C
# modifications: DNA, backbone not given here
# notes: DNA SELEX 1 aptamer clone
# B12: AMX199.B6: DNA SELEX 1 aptamer clone (nucleic acid)
# DNA: B9 DNA with C53T, T59C
# modifications: DNA, backbone not given here
# notes: DNA SELEX 1 aptamer clone
# B13: AMX200.E10: DNA SELEX 1 aptamer clone (nucleic acid)
# DNA: B9 DNA with T50C, C58T
# modifications: DNA, backbone not given here
# notes: DNA SELEX 1 aptamer clone
# B14: AMX202.F6: DNA SELEX 1 aptamer clone (nucleic acid)
# DNA: B9 DNA with T50C, C58T, T59C
# modifications: DNA, backbone not given here
# notes: DNA SELEX 1 aptamer clone
# B15: AMX199.F10: DNA SELEX 1 aptamer clone (nucleic acid)
# DNA: CTACCTACGATCTGACTAGCGAAACACTAGGTTGGTTAGGATTGGTGTGTTTCCGTTCTGCTTACTCTCATGTAGTTCC
# modifications: DNA, backbone not given here
# notes: DNA SELEX 1 aptamer clone
# B16: AMX199.G5: DNA SELEX 1 aptamer clone (nucleic acid)
# DNA: B15 DNA with T52C, T56C, T57C
# modifications: DNA, backbone not given here
# notes: DNA SELEX 1 aptamer clone
# B17: AMX199.G1: DNA SELEX 1 aptamer clone (nucleic acid)
# DNA: B15 DNA with T52C, T56C, C58T
# modifications: DNA, backbone not given here
# notes: DNA SELEX 1 aptamer clone
# B18: AMX199.A10: DNA SELEX 1 aptamer clone (nucleic acid)
# DNA: B15 DNA with A22G, T52C, C58T
# modifications: DNA, backbone not given here
# notes: DNA SELEX 1 aptamer clone
# B19: AMX199.H7: DNA SELEX 1 aptamer clone (nucleic acid)
# DNA: B15 DNA with T56C, C58T
# modifications: DNA, backbone not given here
# notes: DNA SELEX 1 aptamer clone
# B20: AMX199.F1: DNA SELEX 1 aptamer clone (nucleic acid)
# DNA: B15 DNA with T52C, T56C, C58A
# modifications: DNA, backbone not given here
# notes: DNA SELEX 1 aptamer clone
# B21: AMX199.F6: DNA SELEX 1 aptamer clone (nucleic acid)
# DNA: B15 DNA with T52C, T56C
# modifications: DNA, backbone not given here
# notes: DNA SELEX 1 aptamer clone
# B22: AMX199.G4: DNA SELEX 1 aptamer clone (nucleic acid)
# DNA: B15 DNA with T52C, T56C, C58A
# modifications: DNA, backbone not given here
# notes: DNA SELEX 1 aptamer clone
# B23: AMX199.F11: DNA SELEX 1 aptamer clone (nucleic acid)
# DNA: B15 DNA with C54T, T56C
# modifications: DNA, backbone not given here
# notes: DNA SELEX 1 aptamer clone
# Target: human vWF A1 domain (SEQ ID NO 5) (Homo sapiens, UniProt P04275, T1381A)
# Assay: 3-point dot blot screen, human vWF A1 domain
# Type: binding
# Details: DNA SELEX 1 aptamers; 100 nM human vWF A1 domain; ratio of fraction bound with target to without
# From the text: (§1) When a significant positive ratio of binding of RNA in the presence of human or rabbit vWF A1 domain versus in the absence of protein was seen, the pools were cloned using the TOPO TA cloning kit (Invitrogen, Cat. #45-0641, Carlsbad, Calif.) according to the manufacturer's instructions. Round 9 and 12 pool templates were cloned and sequenced (125 total sequences), producing 48 unique clones. All unique clones were transcribed, desalted, 5-^32P end-labeled, and assayed in a 3-point dot blot screen (no protein target control, 100 nM human vWF A1 domain (SEQ ID NO 5, FIG. 3), or 100 nM rabbit vWF A1 domain (SEQ ID NO 6, FIG. 3). The data is presented in the third and fourth columns of Table 4 below as the ratio of the fraction of the aptamer bound to the nitrocellulose in the presence of the target protein to the fraction of aptamer bound in the absence of the target protein.
# (§2) When a significant positive ratio of binding of RNA in the presence of human or rabbit vWF A1 domain (SEQ ID NOS 4 and 6, respectively) versus in the absence of protein was seen, the pools were cloned using the TOPO TA cloning kit (Invitrogen Cat. #45-0641, Carlsbad, Calif.) according to the manufacturer's instructions. Round 9 and 12 pool templates were cloned and sequenced (185 total sequences), producing 78 unique clones within 3 sequence families. All unique clones were transcribed, desalted, 5-^32P end-labeled, and assayed in a 3-point dot blot screen (no protein target control, 100 nM human vWF A1 domain (SEQ ID NO 5), or 100 nM rabbit vWF A1 domain (SEQ ID NO 6). The data are presented in the third and fourth columns of Table 9 below as the ratio of the fraction of the aptamer bound to the nitrocellulose in the presence of the target protein to the fraction of aptamer bound in the absence of the target protein. Of the three sequence families, members of Family #1 and #2 and two individual, non-family aptamers, bound to both human vWF domain A1 (SEQ ID NO 5) and rabbit vWF domain A1 (SEQ ID NO 6).
# (§3) All unique clones were assayed in a 3-point dot blot screen (no protein target control, 100 nM human vWF A1 domain (SEQ ID NO 5), or 100 nM rabbit vWF A1 domain (SEQ ID NO 6). The data are presented in the third and fourth columns of Table 14 below as the ratio of the fraction of the aptamer bound to the nitrocellulose in the presence of the target protein to the fraction of aptamer bound in the absence of the target protein.
# Sequence of human vWF A1 domain (SEQ ID NO 5) (P04275 with tags, fused parts or gaps T1381A): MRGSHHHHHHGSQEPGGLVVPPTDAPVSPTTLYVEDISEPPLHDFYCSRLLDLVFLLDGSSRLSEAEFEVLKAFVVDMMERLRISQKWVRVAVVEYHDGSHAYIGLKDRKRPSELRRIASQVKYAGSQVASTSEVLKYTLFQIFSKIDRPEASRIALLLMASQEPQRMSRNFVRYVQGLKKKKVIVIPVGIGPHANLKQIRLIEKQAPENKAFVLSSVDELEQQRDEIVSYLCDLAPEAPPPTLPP
row,Molecule,Screen- Human/No Protein
1,B1,1.49
2,B2,1.86
3,B3,0.97
4,B4,1.66
5,B5,1.92
6,B6,2.28
7,B7,1.94
8,B8,1.04
9,B9,1.78
10,B10,1.89
11,B11,1.27
12,B12,2.01
13,B13,1.69
14,B14,1.49
15,B15,1.17
16,B16,1.41
17,B17,1.19
18,B18,1.25
19,B19,1.32
20,B20,1.32
21,B21,1.37
22,B22,1.19
23,B23,1.44

# Tested on: rabbit vWF A1 domain (SEQ ID NO 6)
# Assay: 3-point dot blot screen, rabbit vWF A1 domain
# Type: binding
# Details: DNA SELEX 1 aptamers; 100 nM rabbit vWF A1 domain; ratio of fraction bound with target to without
# From the text: as §1, §2, §3
# When a significant positive ratio of binding of DNA in the presence of human or rabbit vWF A1 domain versus in the absence of protein was seen, the pools were cloned using the TOPO TA cloning kit (Invitrogen Cat. #45-0641, Carlsbad, Calif.) according to the manufacturer's instructions. Round 7 and 11 pool templates were cloned and sequenced (218 total sequences), producing 146 unique clones within 12 sequence families of which sequences from six families show vWF target binding activity. All unique clones were assayed twice in a 3-point dot blot screen (no protein target control, 20 nM full length human vWF (Calbiochem Cat. #681300, La Jolla, Calif.), or 20 nM rabbit vWF A1 domain. The data is presented in the third and fourth columns of Table 17 below as the ratio of the fraction of the aptamer bound to the nitrocellulose in the presence of the target protein to the fraction of aptamer bound in the absence of the target protein.
# Sequence of rabbit vWF A1 domain (SEQ ID NO 6) (as listed by the source): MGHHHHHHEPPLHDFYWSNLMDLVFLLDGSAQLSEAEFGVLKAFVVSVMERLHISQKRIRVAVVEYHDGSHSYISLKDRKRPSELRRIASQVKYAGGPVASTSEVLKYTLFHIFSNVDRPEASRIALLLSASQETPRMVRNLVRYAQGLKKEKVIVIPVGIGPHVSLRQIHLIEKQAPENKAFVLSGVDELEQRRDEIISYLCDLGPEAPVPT
row,Molecule,Screen- Rabbit/No Protein
1,B1,1.19
2,B2,1.27
3,B3,0.99
4,B4,1.41
5,B5,1.76
6,B6,2.10
7,B7,1.55
8,B8,1.03
9,B9,1.79
10,B10,2.00
11,B11,1.27
12,B12,1.91
13,B13,1.82
14,B14,1.46
15,B15,1.24
16,B16,1.34
17,B17,1.26
18,B18,1.29
19,B19,1.14
20,B20,1.36
21,B21,1.30
22,B22,1.11
23,B23,1.35
